Data: US20150011462A1 (Novo Nordisk, published 2015)
Numbered stars: 1 amine (or outer) side, 2 acyl side, 3 side chain; on linkers, the order of the positions; unused ones are H or OH. Square brackets hold non-standard residues; d marks the D form. Side chains are listed from the residue outwards. Ends that are not written are not given here. * marks the point of attachment. TtdSuc = 4-[3-[2-[2-(3-aminopropoxy)ethoxy]ethoxy]propylamino]-4-oxobutanoyl; C20 diacid = O=C(O)CCCCCCCCCCCCCCCCCCC(=O)*; γGlu = O=C(O)[C@H](CCC(=O)[*:2])N[*:1]; Desaminohistidyl = O=C(CCc1c[nH]cn1)*; Trx = NC[C@H]1CC[C@H](C(=O)O)CC1; PEG4 = NCCOCCOCCOCCOCCC(=O)O; AEEA = NCCOCCOCC(=O)O; Aib = CC(C)(N)C(=O)O; Inp = O=C(O)C1CCNCC1

B1: N{Alpha}([Aib8,Glu22,Arg26,Arg34]-GLP-1-(7-37)-peptidyl)-N{Epsilon}[2-[2-[2-[[2-[2-[2-[[2-[2-[2-[[2-[2-[2-[[2-[2-[2-[[2-[2-[2-[[(4S)-4-carboxy-4-[[4-[(19-carbox … (peptide)
peptide: H[Aib]EGTFTSDVSSYLEEQAAREFIAWLVRGRGK([AEEA-AEEA-AEEA-AEEA-AEEA-AEEA-γGlu-Trx-C20 diacid])GGSK([AEEA-AEEA-AEEA-AEEA-AEEA-AEEA-γGlu-Trx-C20 diacid])
notes: Double-acylated, C-terminally extended GLP-1 analogue made by SPPS; also called 24
B2: N{Alpha}([AAib8,Glu22,Arg26,Arg34]-GLP-1-(7-37)-peptidyl)-N{Epsilon}[2-[2-[3-[2-[2-[3-[[(4S)-4-carboxy-4-(19-carboxynonadecanoylamino)butanoyl]amino]propoxy]eth … (peptide)
peptide: HXEGTFTSDVSSYLEEQAAREFIAWLVRGRGKGGSK
modifications: Aib at position 8; N-epsilon of Lys38 and of Lys42 each acylated with C20 diacid (19-carboxynonadecanoyl)-gGlu-TotaGlyc (GLP-1(7-37) numbering = sequence-listing position + 6)
notes: Double-acylated, C-terminally extended GLP-1 analogue made by SPPS; The printed name has 'AAib8' (typographic slip for Aib8); also called 22
B3: N{Alpha}([Aib8,Glu22,Arg26,Arg34]-GLP-1-(7-37)-peptidyl)-N{Epsilon}[4-[2-[2-[2-[[(4S)-4-carboxy-4-[[4-[(19-carboxynonadecanoylamino)methyl]cyclohexanecarbonyl]a … (peptide)
peptide: HXEGTFTSDVSSYLEEQAAREFIAWLVRGRGKGGSK
modifications: Aib at position 8; N-epsilon of Lys38 and of Lys42 each acylated with C20 diacid (19-carboxynonadecanoyl)-Trx-gGlu-DooaSuc (GLP-1(7-37) numbering = sequence-listing position + 6)
notes: Double-acylated, C-terminally extended GLP-1 analogue made by SPPS; also called 23
B4: N{Alpha}([Aib8,Glu22,Arg26,Arg34]-GLP-1-(7-37)-peptidyl)-N{Epsilon}3-[2-[2-[2-[2-[[(4S)-4-carboxy-4-[[4-[(19-carboxynonadecanoylamino)methyl]cyclohexanecarbonyl … (peptide)
peptide: H[Aib]EGTFTSDVSSYLEEQAAREFIAWLVRGRGK([PEG4-γGlu-Trx-C20 diacid])GGSK([PEG4-γGlu-Trx-C20 diacid])
notes: Double-acylated, C-terminally extended GLP-1 analogue made by SPPS; also called 10
B5: N{Alpha}([Aib8,Glu22,Arg26,Arg34]-GLP-1-(7-37)-peptidyl)-N{Epsilon}[2-[2-[2-[[2-[2-[2-[[2-[2-[2-[[2-[2-[2-[[(4S)-4-carboxy-4-[[4-[(19-carboxynonadecanoylamino)m … (peptide)
peptide: H[Aib]EGTFTSDVSSYLEEQAAREFIAWLVRGRGK([AEEA-AEEA-AEEA-AEEA-γGlu-Trx-C20 diacid])GGSK([AEEA-AEEA-AEEA-AEEA-γGlu-Trx-C20 diacid])
notes: Double-acylated, C-terminally extended GLP-1 analogue made by SPPS; also called 17
B6: N{Epsilon-36}-[2-[2-[2-[[2-[2-[2-[[(4S)-4-carboxy-4-[[4-[(19-carboxynonadecanoylamino)methyl]cyclohexanecarbonyl]amino]butanoyl]amino]ethoxy]ethoxy]acetyl]amino … (peptide)
peptide: H[Aib]EGTFTSDVSSYLEEQAAREFIAWLVRGK([AEEA-AEEA-γGlu-Trx-C20 diacid])GAESPK([AEEA-AEEA-γGlu-Trx-C20 diacid])
notes: Double-acylated, C-terminally extended GLP-1 analogue made by SPPS; also called 14
B7: N{Epsilon-36}-[2-[2-[2-[[2-[2-[2-[[(4S)-4-carboxy-4-[[4-[(19-carboxynonadecanoylamino)methyl]cyclohexanecarbonyl]amino]butanoyl]amino]ethoxy]ethoxy]acetyl]amino … (peptide)
peptide: H[Aib]EGTFTSDVSSYLEEQAAREFIAWLVRGK([AEEA-AEEA-γGlu-Trx-C20 diacid])GPASEK([AEEA-AEEA-γGlu-Trx-C20 diacid])
notes: Double-acylated, C-terminally extended GLP-1 analogue made by SPPS; also called 15
B8: N{Alpha}([Imp … (peptide)
peptide: [Desaminohistidyl][Aib]EGTFTSDVSSYLEEQAAREFIAWLVRGRGK([AEEA-AEEA-AEEA-AEEA-γGlu-C20 diacid])GGSK([AEEA-AEEA-AEEA-AEEA-γGlu-C20 diacid])
notes: Double-acylated, C-terminally extended GLP-1 analogue made by SPPS; also called 20
B9: N{Alpha}([Aib8,Glu22,Arg26,Arg34]-GLP-1-(7-37)-peptidyl)-N{Epsilon}[2-[2-[2-[[2-[2-[2-[[2-[2-[2-[[2-[2-[2-[[(4S)-4-carboxy-4-(19-carboxynonadecanoylamino)butano … (peptide)
peptide: H[Aib]EGTFTSDVSSYLEEQAAREFIAWLVRGRGK([AEEA-AEEA-AEEA-AEEA-γGlu-C20 diacid])GGSK([AEEA-AEEA-AEEA-AEEA-γGlu-C20 diacid])
notes: Double-acylated, C-terminally extended GLP-1 analogue made by SPPS; also called 19
B10: N{Alpha}([Aib8,Glu22,Arg26,Arg34]-GLP-1-(7-37)-peptidyl)-N{Epsilon}[4-[3-[2-[2-[3-[[(4S)-4-carboxy-4-[[1-(19-carboxynonadecanoyl)piperidine-4-carbonyl]amino]but … (peptide)
peptide: H[Aib]EGTFTSDVSSYLEEQAAREFIAWLVRGRGK([TtdSuc-γGlu-Inp-C20 diacid])GGSK([TtdSuc-γGlu-Inp-C20 diacid])
notes: Double-acylated, C-terminally extended GLP-1 analogue made by SPPS; also called 21
B11: N{Alpha}([Imp … (peptide)
peptide: [Desaminohistidyl][Aib]EGTFTSDVSSYLEEQAAREFIAWLVRGRGK([AEEA-AEEA-AEEA-AEEA-γGlu-Trx-C20 diacid])GGSK([AEEA-AEEA-AEEA-AEEA-γGlu-Trx-C20 diacid])
notes: Double-acylated, C-terminally extended GLP-1 analogue made by SPPS; also called 18

Tests used:
human GLP-1 receptor [1] = target: T1, human GLP-1 receptor (human, UniProt P43220 24-463); experiment: cell-based or functional assay
human GLP-1 receptor [2] = target: T1, human GLP-1 receptor; experiment: competitive binding (SPA): displacement of 125I-GLP-1(7-36)NH2 from BHK cell membranes with human GLP-1 receptor; high HSA (2.0% final)
Method: (§1) For the receptor binding assay in the presence of low HSA (0.005%) 50 μl of the assay buffer was added to each well of an assay plate. […] For the receptor binding assay in the presence of high HSA (2%) 50 μl of the 8% albumin stock was added to each well of an assay plate. […] Cell membrane aliquots were thawed and diluted to their working concentration. Fifty μl were added to each well in the assay plate. […] WGA SPA beads were suspended in assay buffer at 20 mg/ml. The suspension was diluted to 10 mg/ml in assay buffer just prior to addition to the assay plate. Fifty μl were added to each well in the assay plate. […] A 25 μl aliquot was reserved for measuring total counts/well. […] The assay plate was incubated for 2 h at 30° C. […] The assay plate was centrifuged for 10 min. […] The assay plate was read in a Packard TopCount NXT instrument.

human GLP-1 receptor [3] = target: T1, human GLP-1 receptor; experiment: competitive binding (SPA): displacement of 125I-GLP-1(7-36)NH2 from BHK cell membranes with human GLP-1 receptor; low HSA (max. 0.001% final)
Method: as §1

| Binder | EC50 (pM), in vitro potency, CRE luciferase reporter gene assay in BHK cells expressing the human GLP-1 receptor (human GLP-1 receptor [1]) | IC50 (human GLP-1 receptor [2]) | IC50 (human GLP-1 receptor [3]) |
| --- | --- | --- | --- |
| B1 | 7 pM | 84 nM | 0.67 nM |
| B2 | 10 pM | 194 nM | 0.82 nM |
| B3 | 22 pM | 201 nM | 1.4 nM |
| B4 | 27 pM | 123 nM | 1.3 nM |
| B5 | 12 pM | 99 nM | 1.8 nM |
| B6 | 22 pM | 530 nM | 1.5 nM |
| B7 | 20 pM | 928 nM | 1.6 nM |
| B8 | 8.4 pM | 270 nM | 4.1 nM |
| B9 | 6.2 pM | 142 nM | 2.4 nM |
| B10 | 19 pM | 177 nM | 1.3 nM |
| B11 | 13 pM | 219 nM | 2.3 nM |
